Assay results: patent US8951750B2 (BASF SE, priority 2007, dated 2015)
Read-outs that look alike come from different tables or passages of the source.

What was measured:
[1] = test system: CC(C)=CC(C)(C(=O)O)C(=O)O; assay: purified protein, by the assay type; details: other: 30° C., BTB assay, pH 7.2
Description: (§3) All kinetics assays were performed on an Anthos Zenyth 3100 96-well microplate reader. […] The reaction was initiated by addition of 10 μl of decarboxylase solution (0.002-0.02 mM, final concentration). The sensitivity of the reaction depends on the concentration of buffer, lower concentrations give higher sensitivity. The values of KM and kcat were calculated from spectophotometrical measurements at 620 nm of the resulting blue solution using Lineweaver-Burk plot and the following equations:
C=CC(C)(C(=O)O)C(=O)O = assay: purified protein, by the assay type; details: other: 30° C., BTB assay, pH 7.2
Description: as §3

[2] = test system: CC/C=C/C(C)(C(=O)O)C(=O)O; assay: purified protein, by the assay type; details: other: 30° C., BTB assay, pH 7.2
Description: as §3
C/C=C/C(C)(C(=O)O)C(=O)O = assay: purified protein, by the assay type; details: other: 30° C., BTB assay, pH 7.2
Description: as §3

[3] = test system: AMDase from Mesorhizobium sp. BNC1; assay: BTB activity assay, alkenyl-substituted substrates of formula I; assay type: biochemical; details: 30° C.
Description: (§1) This method involves measuring spectrophotometrically at 620 nm the change of yellow colour to green/blue of pH indicator—BTB with increasing concentration of [OH^−] formed during the decarboxylation reaction. […] More concentrated buffer (10 mM) gives better results with higher concentration of enzyme or quicker reactions since changes of colour are slower due to higher buffer capacity.
(§2) All kinetics assays were performed on an Anthos Zenyth 3100 96-well microplate reader. 10 μl of 20-500 mM phenylmalonate or methyl-phenylmalonate solution (pH adjusted to 7.2) was added to 180 μl of 5-10 mM MOPS buffer pH 7.2 containing 0.0186 mM bromothymol blue. The reaction was initiated by addition of 10 μl of decarboxylase solution (0.002-0.02 mM, final concentration). The sensitivity of the reaction depends on the concentration of buffer, lower concentrations give higher sensitivity. The values of KM and kcat were calculated from spectophotometrical measurements at 620 nm of the resulting blue solution using Lineweaver-Burk plot and the following equations: […]
A BTB activity assay was performed as described above. Compounds of formula I, wherein R^2 is methyl and R^1 is phenyl, ethenyl, propen-1-yl, buten-1-yl or 2-methylpropen-1-yl were tested as substrates.

[4] = In vitro decarboxylation of 2-methyl-2-phenylmalonate to 2-phenylpropanoic acid; assay type: biochemical; details: for absolute configuration of the product: 2-phenylpropionate product
Description: [formula] [formula] [formula] h) In Vitro Decarboxylation of 2-methyl-2-phenylmalonate to 2-phenylpropanoic Acid by AMDase from Bordetella bronchiseptica and Asp/Glu Racemase from Mesorhizobium sp. BNC1.
To 400 μl of 0.1 M TRIS buffer pH 8, 100 μl of 0.5 M water solution (after adjusting pH to 8) of 2-methyl-2-phenylmalonic acid was added. Then 20 μl of an AMDase solution (10 mg/mL) was added and the reaction was stirred at 30° C. for 8 h. Products were extracted with diethyl ether after acidifying with 1 M HCl and methylated with TMS-diazomethane. The reaction was analyzed by GC (conversion up to 95%) and 2-phenylpropanoic acid formation confirmed by GC-MS, ^1H NMR. Both enzyme products (after methylation) had the same configuration (the same peak on GC with chiral column, ee>99%). Thus according to the literature^7 absolute configuration of the product was R.

[5] = BTB spectrophotometric assay of kinetic constants, substrate phenylmalonate; assay type: biochemical; details: for Km / kcat: substrate 2-phenylmalonic acid (1), His6-tagged enzyme, BTB method; for decarboxylase activity in words: substrate phenylmalonate 1, purified enzymes
Description: as §1, §2

[6] = BTB spectrophotometric assay of kinetic constants, substrate 2-methyl-2-phenylmalonate; assay type: biochemical; details: for Km / kcat / reaction with 2-methyl-2-phenylmalonic acid (2) (cell spans Km, kcat, kcat/Km): substrate 2-methyl-2-phenylmalonic acid (2), BTB method; for Km / kcat: His6-tagged enzyme
Description: as §1, §2

[7] = In vivo plate assay for AMDase activity (BTB), substrate phenylmalonate; assay type: cell-based; details: E. coli expressing the enzyme
Description: Test Petri dishes were prepared using following medium: 1% tryptone, 0.5% yeast extract, 1% sodium chloride, 1% agar, 0.025% bromothymol blue (BTB). Then pH was adjusted to 6.5 and the medium autoclaved. When medium temperature reached 50-60° C. isopropyl-β-D-thiogalactopyranoside (1 mM, final concentration), kanamycin ([…], final concentration) and phenylmalonic acid (0.36%, final concentration) were added. 100 μl of liquid bacterial culture containing AMDase was plated on test Petri dishes. After 2-3 days of incubation at 37° C. the colonies and surrounding area changed colour to green-blue indicating AMDase activity.

[8] = substrate 2-methyl-2-phenylmalonic acid (2); literature data (footnote a, ref 6); cited from earlier work
[9] = substrate 2-phenylmalonic acid (1); literature data (footnote a, ref 6); cited from earlier work

Molecule “AMDase from Bordetella bronchiseptica KU1201 (Bordetella bronchiseptica)” has a Km [1] of 3.5 mM, a kcat [1] of 5.2 s⁻¹ and a kcat/Km [1] of 1500 M⁻¹ s⁻¹. It also gave a Km (C=CC(C)(C(=O)O)C(=O)O) of 7.8 mM, a kcat (C=CC(C)(C(=O)O)C(=O)O) of 42.8 s⁻¹ and a kcat/Km (C=CC(C)(C(=O)O)C(=O)O) of 5500 M⁻¹ s⁻¹. It also gave a Km [2] of 14.4 mM, a kcat [2] of 23.9 s⁻¹ and a kcat/Km [2] of 1600 M⁻¹ s⁻¹. It also gave a Km (C/C=C/C(C)(C(=O)O)C(=O)O) of 12.8 mM, a kcat (C/C=C/C(C)(C(=O)O)C(=O)O) of 46.2 s⁻¹ and a kcat/Km (C/C=C/C(C)(C(=O)O)C(=O)O) of 3600 M⁻¹ s⁻¹.

Work on C=CC(C)(C(=O)O)C(=O)O [compound 3, 2-methyl-2-vinylmalonic acid] yielded a Km [3] of 19.4 mM and a kcat [3] of 8.9 s⁻¹.

B1: protein EAN08019.1 from Mesorhizobium sp. BNC1: Asp/Glu racemase [Mesorhizobium sp. BNC1], SEQ ID NO: 4, shown to have AMDase activity (protein, listed as Mesorhizobium sp.)
chain: MSAEDPVIGLIVPPAAGLVPPEAVAMYPEVTFHASGLGLKEMTPCGYAGVIDLVGDHAERHAQAGAQAVALMGTSLSFFRGAAFNAELITHMSNRSGLPATTMSQAVVDELKSHGARRIAVVTAYRQDVNNLLAAFLNEHGIEARSLKSLGITSVADVAGTPAKRLLQLCKEAVHDAGPVDAVLISCGGLHTLDVIVDVEISTGLPVVTSATAGVRGAVGLLKRSAETAEHATSKFLTGRALEHHHHHH
For B1, the “absolute configuration of the product” value [4] was “R-configuration”, the “ee of 2-phenylpropanoic acid product” value ([4]; GC with chiral column after methylation) was greater than 99% and the Km [5] was 9.6 mM. For the same molecule, the kcat [5] was 118 s⁻¹, the “decarboxylase activity in words” value [5] was “very efficient decarboxylase activity” and the “decarboxylase activity in words” value ([6]; substrate 2-methyl-2-phenylmalonate 2, purified enzymes) was “very efficient decarboxylase activity”. For the same molecule, the Km [6] was 22.2 mM and the kcat [6] was 55.8 s⁻¹.

B2: protein NP_888076.1 from Bordetella bronchiseptica RB50: Putative decarboxylase [Bordetella bronchiseptica RB50], SEQ ID NO: 8 (protein, listed as Bordetella bronchiseptica)
chain: MPTPTQMKTTARYRPYAWRAKVGLIVPSTNTINEPEFYRLAPDGVTIHTGRAINAGPATQENYDRMARGVLEAADLIKTAEVDVVAYGCTSGSIVCSLDELCDGMSERVGVPAIATAGAVVAALRALGVRRVAVGTPYIDFVNQREREFLEQYGFEVVSIEGMDLGHTQEERRDIGRVPPQSTFQLARDIDRPQAEAIFLSCTNLATLDMIERIENELGKPVVTSNQATFWACLRLLGLSCAIPGYGRLLTDCLAPITRASYALALEHHHHHH
With B2 the Km [5] was 10 mM, the kcat [5] was 12.4 s⁻¹ and the “decarboxylase activity in words” value [5] was “moderate activity”. For the same molecule, the “reaction with 2-methyl-2-phenylmalonic acid (2) (cell spans Km, kcat, kcat/Km)” value (“reaction” below) [6] was “No reaction”.

B3: protein BAA30082.1 from Pyrococcus horikoshii OT3: Hypothetical arylmalonate decarboxylase [Pyrococcus horikoshii OT3], SEQ ID NO: 6 (protein, listed as Pyrococcus horikoshii)
chain: MYGWRRRIGLIVPSSNTTMEPEFWKMAPEGVSIHTARMRLREVTEESLLEMERHAKDAALELADAEVDVIVYGCTSGSLIKGKGYDKEIAKNLEEASGIKTITTSTAVLNALNTLDIQKVVVATPYIDSVNEREKEFLEANGIEVLRIKGLGIVKNTEIGRQEPWVAYKLALEVYTPEADGLFISCTNFRTIEIIDKLEVELGVPVVTSNQATMWYALKTMKVKEKYDMYGTLLKEKLLEHHHHHH
In the case of B3, the Km [5] is reported as 41.7 mM, the kcat [5] is reported as 0.09 s⁻¹ and the “decarboxylase activity in words” value [5] is reported as “very low levels of activity”. For the same molecule, the “colour change of BTB indicator (decarboxylase activity)” value (“colour change of BTB indicator” below) [7] was “only slow development of colour” and the “reaction” value [6] was “No reaction”.

B4: AMDase from Bordetella bronchiseptica: arylmalonate decarboxylase from Bordetella bronchiseptica, SEQ ID NO: 2, Blast entry BAA02419.1 (protein, listed as Bordetella bronchiseptica)
chain: MQQASTPTIGMIVPPAAGLVPADGARLYPDLPFIASGLGLGSVTPEGYDAVIESVVDHARRLQKQGAAVVSLMGTSLSFYRGAAFNAALTVAMREATGLPCTTMSTAVLNGLRALGVRRVALATAYIDDVNERLAAFLAEESLVPTGCRSLGITGVEAMARVDTATLVDLCVRAFEAAPDSDGILLSCGGLLTLDAIPEVERRLGVPVVSSSPAGFWDAVRLAGGGAKARPGYGRLFDESLEHHHHHH
For B4, the “absolute configuration of the product” value [4] is given as “R-configuration”, the Km [8] is given as 25.5 mM and the kcat [8] is given as “(29.8)^a s^−1”. The Km [9] was 13.9 mM, the kcat [9] was “(353)^a ^ s^−1” and the Km [5] was 10.7 mM. The kcat [5] was 316.1 s⁻¹, the “colour change of BTB indicator” value [7] was “clear change in colour from yellow to blue” and the Km [6] was 26.9 mM. For the same molecule, the kcat [6] was 278.9 s⁻¹.

B5: protein ZP_00801202.1 from Alkaliphilus metalliredigenes QYMF: Asp/Glu racemase [Alkaliphilus metalliredigenes QYMF], SEQ ID NO: 10 (protein)
chain: MSDFSYGGRAKIGLIYPAPGWVMEPEFYLMAPWGVSTYTTRISLKHVNVAELRKLGDQSVEAAELLAQAPLDVIALGCTSGSFVNGSRYDQELIEKMEGVSGGIPCTTTSTAVVAALKALHVTKIAVATPYIDEVNLKAKNFLEAEGLDVVNIKGLGLLQDIEIDRQDMETVYRLAKEVDHVEAQAIVILCTGLRSVPIIEALENDLGKPVISAIQATFWHCLRLSGVRENVEGYGSLLRIEGLLEHHHHHH
modifications: Alkaliphilus metalliredigenes
For B5, the kcat [5] was 0.26 s⁻¹, the “decarboxylase activity in words” value [5] was “very low levels of activity” and the “colour change of BTB indicator” value [7] was “only slow development of colour”. The “reaction” value [6] was “No reaction”.
